Assay in all cases: binding ELISA on coated antigen (8 µg/mL), HRP anti-Fc detection, 450 nm (Experimental Example 2.5)
(In general: An ELISA detects its analyte on a solid surface through an enzyme-linked reagent.)

For assay [1], the target named is T1, CD300a antigen (12449-H08H, Sino Biological) (UniProt Q9UGN4 18-178).
T1 sequence (looked up): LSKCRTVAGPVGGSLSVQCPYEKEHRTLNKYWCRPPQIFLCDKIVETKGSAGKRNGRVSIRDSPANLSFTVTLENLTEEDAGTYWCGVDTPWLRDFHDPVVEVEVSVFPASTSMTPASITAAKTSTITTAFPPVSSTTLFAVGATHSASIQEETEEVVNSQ
On the procedure:
(§1) In order to identify that the anti-CD300c monoclonal antibody CL7 specifically binds only to CD300c without binding to other B7 family proteins, binding ELISA was performed. More specifically, each of CD300c antigen, CD300a antigen, or seven B7 family protein antigens (PD-L1 [B7-H1] (Sino Biological), ICOS Ligand[B7-H2] (Sino Biological), CD276[B7-H3] (Sino Biological), B7-H4 (Sino Biological), CD80[B7-1] (Sino Biological), CD86[B7-2] (Sino Biological), CD273[PD-L2] (Sino Biological)) in a coating buffer (0.1 M sodium carbonate, pH 9.0) was coated on an ELISA plate at a concentration of 8 μg/mL per well, and then bound to the plate by incubation at 2° C. to 8° C. overnight. The unbound antigen was removed by washing with PBST three times, and then […] of blocking buffer (5% skim milk in PBST) was added to each well. Subsequently, blocking was performed at room temperature for 1 hour, followed by washing again with PBST. Thereafter, CL7 was diluted in quadruplicate with PBS, incubated with the antigen at room temperature for 1 hour for antigen binding 1 hour later, and washed three times with PBST. Then, a secondary antibody (HRP-conjugated anti-Fc IgG) diluted to 4 μg/mL in blocking buffer was added thereto, followed by incubation at room temperature for 1 hour. Subsequently, the unbound antibody for detection was removed using PBST, and then a TMB solution was added thereto, followed by incubation for 10 minutes for development. Then, 2 N sulfuric acid solution was added to terminate the development reaction, and the absorbance was measured at 450 nm to identify the antibody specifically binding to the CD300c antigen.

The target of assay [2] is PD-L1 [B7-H1] (Sino Biological) (UniProt Q9NZQ7 19-239). The protocol:
as §1

Assay [3] addresses T2, ICOS Ligand[B7-H2] (Sino Biological) (UniProt O75144 19-258, limits assumed).
T2 sequence (looked up): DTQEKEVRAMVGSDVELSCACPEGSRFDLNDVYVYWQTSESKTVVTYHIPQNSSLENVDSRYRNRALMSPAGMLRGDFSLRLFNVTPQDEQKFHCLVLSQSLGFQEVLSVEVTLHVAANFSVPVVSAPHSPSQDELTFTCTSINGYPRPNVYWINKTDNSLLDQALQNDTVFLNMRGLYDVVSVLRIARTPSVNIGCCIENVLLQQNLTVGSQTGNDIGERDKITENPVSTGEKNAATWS
On the procedure:
as §1

For assay [4], the target named is T3, CD300c antigen (11832-H08H, Sino Biological) (human, UniProt Q08708 21-183).
T3 construct: Bought antigen; also called CD300c protein; CD300 antigen-like family member C
T3 sequence (looked up): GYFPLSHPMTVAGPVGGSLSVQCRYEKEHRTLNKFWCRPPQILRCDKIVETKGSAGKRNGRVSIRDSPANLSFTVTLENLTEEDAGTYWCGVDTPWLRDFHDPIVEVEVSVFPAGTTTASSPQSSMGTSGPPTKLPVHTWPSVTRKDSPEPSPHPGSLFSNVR
The protocol:
as §1

Assay [5] concerns the target T4, CD273[PD-L2] (Sino Biological) (UniProt Q9BQ51 20-219, limits assumed).
T4 sequence (looked up): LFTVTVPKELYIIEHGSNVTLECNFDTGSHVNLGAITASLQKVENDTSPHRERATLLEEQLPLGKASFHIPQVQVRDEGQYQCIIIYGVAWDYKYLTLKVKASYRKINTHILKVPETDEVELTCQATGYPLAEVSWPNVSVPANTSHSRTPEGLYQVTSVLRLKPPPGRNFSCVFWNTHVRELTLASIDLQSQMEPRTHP
The protocol: as §1

Assay [6] concerns the target T5, CD80[B7-1] (Sino Biological) (UniProt P33681 35-242).
T5 sequence (looked up): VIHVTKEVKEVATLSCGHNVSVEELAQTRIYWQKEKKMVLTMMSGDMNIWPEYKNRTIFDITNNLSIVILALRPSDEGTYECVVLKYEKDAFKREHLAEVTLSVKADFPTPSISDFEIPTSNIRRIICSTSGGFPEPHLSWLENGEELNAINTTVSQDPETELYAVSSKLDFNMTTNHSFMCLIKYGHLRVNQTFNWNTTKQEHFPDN
The protocol:
as §1

For assay [7], the target named is T6, CD86[B7-2] (Sino Biological) (UniProt P42081 24-245, limits assumed).
T6 sequence (looked up): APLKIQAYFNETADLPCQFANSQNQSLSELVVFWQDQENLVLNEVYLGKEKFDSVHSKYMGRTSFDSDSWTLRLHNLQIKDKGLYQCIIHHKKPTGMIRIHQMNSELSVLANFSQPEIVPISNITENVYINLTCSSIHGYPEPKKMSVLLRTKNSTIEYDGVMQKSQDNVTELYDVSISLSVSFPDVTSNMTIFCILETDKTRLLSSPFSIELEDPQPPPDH
On the procedure: as §1

Chain of PD-L1 [B7-H1] (Sino Biological) (Q9NZQ7 19-239 limits assumed): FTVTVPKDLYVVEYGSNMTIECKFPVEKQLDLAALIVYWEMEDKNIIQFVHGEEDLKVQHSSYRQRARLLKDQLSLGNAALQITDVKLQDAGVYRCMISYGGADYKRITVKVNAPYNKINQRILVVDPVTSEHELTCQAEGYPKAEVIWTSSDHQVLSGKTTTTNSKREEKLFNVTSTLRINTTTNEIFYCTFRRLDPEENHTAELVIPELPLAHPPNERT

B1: CL7 (antibody, V domains shown)
VH: EVQLLESGGGLVQPGGSLRLSCAASGFTFSRYAMSWVRQAPGKGLEWVSAISGSGGSTYYADSVKGRFTISRDNSKNTLYLQMNSLRAEDTAVYYCARSSQGIFDIWGQGTLVTVSS
VL: QSVLTQPPSASGTPGQRVTISCSGNNIGTRRVHWYQQLPDTAPKLLIYSKNNRPSGVPDRFSGSKSGTSASLAISGLRSEDEADYYCAAWDDSLSGPVFGGGTKLTVL
notes: detected with anti-human IgG (H+L) and anti-Fc IgG; also called anti-CD300c monoclonal antibody CL7; anti-CD300c monoclonal antibody (CL7)
For B1, the binding result in assay [1], in assay [2], in assay [3], in assay [5], in assay [6] and in assay [7] was “no binding (tested: log10 about 0.4 ug/ml (about 2.5 ug/ml))” each time. Moreover, the EC50 (read off the curve) (commonly the midpoint of the concentration-response curve) in assay [4] is roughly 0.2 mg/L.
